Results on four molecules are retold here after US20240092848A1 (UNIVERSIT LIBRE DE BRUXELLES, published 2024).

Assay [1] addresses T1, Reck-CK-Fc.
T1 chain: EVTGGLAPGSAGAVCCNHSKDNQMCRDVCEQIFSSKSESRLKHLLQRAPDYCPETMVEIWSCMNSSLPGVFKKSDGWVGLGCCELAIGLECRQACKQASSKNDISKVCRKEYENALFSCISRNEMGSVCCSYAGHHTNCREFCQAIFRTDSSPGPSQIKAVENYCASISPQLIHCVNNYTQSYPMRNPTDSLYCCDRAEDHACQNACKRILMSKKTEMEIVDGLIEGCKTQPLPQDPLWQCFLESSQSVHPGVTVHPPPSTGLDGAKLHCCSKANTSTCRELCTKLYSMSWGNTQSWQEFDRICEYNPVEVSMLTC
The assay can be described thus: isothermal titration calorimetry with Reck-CK-Fc, 25 °C.

The next assay addresses T2, HA-Reck.
T2 construct: whole, on cells; Co-expressed with V5-tagged Wnt ligands in GPR124-/-;RECK-/- HEK293 cells for PLA
T2 sequence (O95980 23-942, species assumed, looked up): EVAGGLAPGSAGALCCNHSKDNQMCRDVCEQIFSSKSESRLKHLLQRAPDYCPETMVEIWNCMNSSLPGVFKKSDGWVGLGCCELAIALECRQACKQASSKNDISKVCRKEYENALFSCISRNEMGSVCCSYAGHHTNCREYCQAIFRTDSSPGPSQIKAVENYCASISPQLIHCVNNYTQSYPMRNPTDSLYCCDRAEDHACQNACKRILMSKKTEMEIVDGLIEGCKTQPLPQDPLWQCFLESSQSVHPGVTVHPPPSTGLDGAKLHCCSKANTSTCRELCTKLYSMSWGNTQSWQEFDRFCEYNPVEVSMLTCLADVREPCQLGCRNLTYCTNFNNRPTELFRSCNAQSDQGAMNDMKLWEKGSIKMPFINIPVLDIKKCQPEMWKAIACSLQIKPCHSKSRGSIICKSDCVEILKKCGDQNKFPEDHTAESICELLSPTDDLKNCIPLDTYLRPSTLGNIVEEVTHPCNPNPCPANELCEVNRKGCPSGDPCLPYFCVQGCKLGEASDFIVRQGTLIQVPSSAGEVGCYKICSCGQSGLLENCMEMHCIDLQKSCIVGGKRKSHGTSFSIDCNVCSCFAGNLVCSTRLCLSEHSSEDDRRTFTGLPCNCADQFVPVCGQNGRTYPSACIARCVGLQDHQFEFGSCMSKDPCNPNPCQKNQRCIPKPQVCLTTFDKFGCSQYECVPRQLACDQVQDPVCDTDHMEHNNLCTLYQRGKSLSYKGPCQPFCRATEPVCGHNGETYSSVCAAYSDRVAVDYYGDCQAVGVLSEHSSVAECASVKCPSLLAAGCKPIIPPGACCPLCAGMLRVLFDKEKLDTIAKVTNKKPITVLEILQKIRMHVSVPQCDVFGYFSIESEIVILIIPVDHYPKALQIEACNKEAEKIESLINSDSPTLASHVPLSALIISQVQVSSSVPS
The assay can be described thus: proximity ligation assay (anti-V5/anti-HA), with against without co-expressed Gpr124. Here is the method: Cells were fixed with 4% paraformaldehyde for 10 min at room temperature (RT) 48 h post transfection. For immunofluorescence staining (IF), cells were blocked in 1% BSA-PBS for 30 min before being exposed to primary antibodies for 1 h at RT. After three PBS washes, cells were incubated with secondary antibodies for 1 h at RT. For anti-V5 staining of Wnt ligands, cells were additionally washes for 10 min in PBS 0.1% Tween 20 before incubation with the secondary antibody solution. For the proximity ligation assay (PLA) (Sigma-Aldrich, St. Louis, MO), cells were blocked for 30 min at 37° C. with the Blocking solution provided by the manufacturer before being incubated with the primary antibodies for 1 h at RT. Cells were washed three times and incubated with the PLA probes anti-rabbit PLUS and anti-mouse MINUS for 1 h at 37° C. […]
Although Reck appears to be the dominant Wnt7 binding determinant, its function in Wnt signaling is known to rely on its capacity to form a complex with Gpr124 through its N-terminal CK domain (Y. Zhou, J. Nathans, Dev. Cell. 31, 248-256 (2014); B. Vanhollebeke et al., Elife. 4, 1-25 (2015)), a domain that is shown herein to be additionally implicated in Wnt7a binding. […] However, a 4-fold increase in Wnt7a-V5/HA-Reck PLAs signals was detected upon co-expression of untagged Gpr124 (FIG. 1F). […]

Assay [2] has as its target T1, Reck-CK-Fc. Description: isothermal titration calorimetry, peptide titrated into Reck-CK-Fc, 25 °C. A general note: In ITC the heat of successive injections is recorded.
Assay [3] has as its target T1, Reck-CK-Fc. Description: single-molecule force spectroscopy (AFM tip with PEG-linked pWnt7b, surface coated with Reck-CK-Fc on protein G).

Side chains are listed from the residue outwards. Ends that are not written are not given here. AFM tip = not defined here

B1: pWnt7b (peptide)
peptide: VEVVRASRLRQPTFLRIKQLRSYQKPMET
notes: also called synthetic Wnt7b linker peptide
The term Kd denotes the constant that tells how readily two partners part at equilibrium. Low readings indicate higher affinity, high ones lower affinity. Molecule B1 returned an equilibrium dissociation constant (Kd) with Reck-CK-Fc [1] of 1.2 µM.

B2: Wnt7a-V5 (ligand)
chain: LGASIICNKIPGLAPRQRAICQSRPDAIIVIGEGSQMGLDECQFQFRNGRWNCSALGERTVFGKELKVGSREAAFTYAIIAAGVAHAITAACTQGNLSDCGCDKEKQGQYHRDEGWKWGGCSADIRYGIGFAKVFVDAREIKQNARTLMNLHNNEAGRKILEENMKLECKCHGVSGSCTTKTCWTTLPQFRELGYVLKDKYNEAVHVEPVRASRNKRPTFLKIKKPLSYRKPMDTDLVYIEKSPNYCEEDPVTGSVGTQGRACNKTAPQASGCDLMCCGRGYNTHQYARVWQCNCKFHWCCYVKCNTCSERTEMYTCK
modifications: palmitoleic acid at Serine 206 (precursor numbering)
notes: Transiently expressed in HEK293 cells; also called V5-tagged Wnt7a; full-length Wnt7a; not shown: V5 tag
With B2, the “fold increase in PLA signal upon co-expression of untagged Gpr124” value with HA-Reck was 4 fold.

B3: pWnt7a (peptide)
peptide: VEPVRASRNKRPTFLKIKKPLSYRKPMDT
notes: Synthetic, purity over 90%; also called synthetic Wnt7a linker peptide; pWnt7a 238-266
With B3, binding with Reck-CK-Fc [2] was put at a Kd of 7 µM. In other words, the single-digit micromolar range.

B4: pWnt7b peptide on the AFM tip (peptide)
peptide: VEVVRASRLRQPTFLRIKQLRSYQKPMETC([NHS‑PEG27‑maleimide linker-AFM tip])
modifications: reading uncertain
notes: Used in single-molecule force spectroscopy; also called Pep7b
For B4, the Kd in the assay with Reck-CK-Fc [3] was found to be 5 µM.
